Molecular target: T1, His-tagged TopA67 (N-terminal region of TopA, 67 kDa, residues 1-597) (E. coli, UniProt P06612 1-597)
T1 construct: DNA topoisomerase I (TopA) of E. coli, residues 1-597; source: E. coli BL21(DE3), 1 mM IPTG 3 h 37°C, purified (Ni-NTA agarose); not shown: His-tag, N-terminal, kept
T1 sequence (looked up): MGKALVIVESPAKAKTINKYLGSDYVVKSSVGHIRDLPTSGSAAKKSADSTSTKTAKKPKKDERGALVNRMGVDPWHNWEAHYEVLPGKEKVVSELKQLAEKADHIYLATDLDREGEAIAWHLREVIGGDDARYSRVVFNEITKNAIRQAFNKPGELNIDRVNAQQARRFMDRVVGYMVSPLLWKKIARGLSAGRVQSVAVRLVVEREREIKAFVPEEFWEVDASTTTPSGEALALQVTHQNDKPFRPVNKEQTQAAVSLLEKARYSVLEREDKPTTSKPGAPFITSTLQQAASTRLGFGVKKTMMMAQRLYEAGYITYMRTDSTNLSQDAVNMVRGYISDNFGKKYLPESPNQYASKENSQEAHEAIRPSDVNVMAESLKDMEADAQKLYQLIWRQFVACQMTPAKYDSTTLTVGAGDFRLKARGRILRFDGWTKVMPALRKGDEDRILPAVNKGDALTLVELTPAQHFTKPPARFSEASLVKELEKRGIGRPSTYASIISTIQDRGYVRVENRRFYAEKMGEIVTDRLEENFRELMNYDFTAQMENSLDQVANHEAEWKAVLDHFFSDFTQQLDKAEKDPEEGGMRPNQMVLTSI
Experiment: co-IP; purified PrS-TopAI and TopA, TopA67 or TopA14 at a molar ratio of 1:5 in buffer A (20 mM Tris-HCl pH 8.0, 150 mM NaCl), in the absence of DNA; anti-protein S antiserum, protein G agarose, 4°C; western blot with anti-His antibody
Details: both partners purified

B1: PrS-TopAI (N-terminal domain of Protein S fused to TopAI, His-tagged) (natural protein)
chain: not shown
notes: also called PrS-YjhX; YjhX
B1: binds.

— paper PMC4666372 (Nucleic Acids Research, 2015)
